# Laboratory results: patent publication US20230061838A1 (SORRENTO THERAPEUTICS, published 2023)
# B1: anti-CD20 dimeric antigen receptor (CD20 DAR), expressed on primary human T cells (other)
# heavy: QVQLQQPGAELVKPGASVKMSCKASGYTFTSYNMHWVKQTPGRGLEWIGAIYPGNGDTSYNQKFKGKATLTADKSSSTAYMQLSSLTSEDSAVYYCARSTYYGGDWYFNVWGAGTTVTVSAASTKGPSVFPLAPSSKSTSGGTAALGCLVKDYFPEPVTVSWNSGALTSGVHTFPAVLQSSGLYSLSSVVTVPSSSLGTQTYICNVNHKPSNTKVDKRVEPKSCDKTHTPRKIEVMYPPPYLDNEKSNGTIIHVKGKHLCPSPLFPGPSKPFWVLVVVGGVLACYSLLVTVAFIIFWVKRGRKKLLYIFKQPFMRPVQTTQEEDGCSCRFPEEEEGGCELRVKFSRSADKGERRRGKGHDGLYQGLSTATKDTYDALHMQALPPR
# light: QIVLSQSPAILSASPGEKVTMTCRASSSVSYIHWFQQKPGSSPKPWIYATSNLASGVPVRFSGSGSGTSYSLTISRVEAEDAATYYCQQWTSNPPTFGGGTKLEIKRTVAAPSVFIFPPSDEQLKSGTASVVCLLNNFYPREAKVQWKVDNALQSGNSQESVTEQDSKDSTYSLSSTLTLSKADYEKHKVYACEVTHQGLSSPVTKSFNRGEC
# Target: T1, CD20 antigen (UniProtKB P11836 - gene MS4A1), on Daudi cells (Homo sapiens, UniProt P11836 1-297)
# T1 sequence: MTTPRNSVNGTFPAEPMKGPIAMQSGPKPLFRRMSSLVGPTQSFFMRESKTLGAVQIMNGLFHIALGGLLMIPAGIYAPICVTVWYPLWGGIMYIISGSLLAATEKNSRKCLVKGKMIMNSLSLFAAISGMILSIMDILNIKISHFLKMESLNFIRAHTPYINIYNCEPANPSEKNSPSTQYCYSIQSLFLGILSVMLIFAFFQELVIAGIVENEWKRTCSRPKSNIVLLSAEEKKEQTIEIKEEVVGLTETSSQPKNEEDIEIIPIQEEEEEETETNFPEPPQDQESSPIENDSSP
# Assay: cell-based or functional assay
binder,measurement,value
B1,fold-change of expansion over four days of co-culture,> 10 fold
